Assay results reported in paper PMC6638984, “Increased association between Epstein-Barr virus EBNA2 from type 2 strains and the transcriptional repressor BS69 restricts EBNA2 activity” (PLoS Pathogens, 2019).

Legend:
[1] = target: BS69 CC-MYND (Homo sapiens) (UniProt Q15326); conditions: cited from earlier work
[2] = target: BS69 coiled-coil MYND domain (BS69_(CC-MYND), amino acids 480-602) (human) (UniProt Q15326); assay: ITC; EBNA2 polypeptide titrated into 0.1 mM BS69_(CC-MYND) in the cell, 19 x 2.0 μl injections, 25°C, 20 mM Tris-HCl, 100 mM NaCl, 1 mM TCEP, pH 7.5; one-site (one event) model; n calculated for monomeric proteins
[3] = target: BS69 coiled-coil MYND domain (BS69_(CC-MYND), amino acids 480-602) (human) (UniProt Q15326); assay: ITC; EBNA2 polypeptide (0.3 or 0.6 mM) titrated into 0.1 mM BS69_(CC-MYND) in the cell, 19 x 2.0 µl injections, 25°C, 20 mM Tris-HCl, 100 mM NaCl, 1 mM TCEP, pH 7.5; one-site (one event) model; n on monomer concentrations; mean of 3 experiments

Chain of BS69 coiled-coil MYND domain (BS69_(CC-MYND), amino acids 480-602) (human) (Q15326 480-602): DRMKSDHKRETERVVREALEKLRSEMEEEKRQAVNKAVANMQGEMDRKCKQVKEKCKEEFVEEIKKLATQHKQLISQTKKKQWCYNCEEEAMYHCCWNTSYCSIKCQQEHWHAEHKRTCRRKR
Chain of type 1 EBNA2 polypeptide T1 EBNA2_(381-445) (domain or fragment) (P12978 381-445): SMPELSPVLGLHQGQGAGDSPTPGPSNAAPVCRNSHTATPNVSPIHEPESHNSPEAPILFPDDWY
Chain of BS69 CC-MYND (Homo sapiens) (Q15326 480-602): as the sequence (Q15326 480-602) above
Chain of type 1 EBNA2 polypeptide T1 EBNA2_(381-455) (domain or fragment) (P12978 381-455): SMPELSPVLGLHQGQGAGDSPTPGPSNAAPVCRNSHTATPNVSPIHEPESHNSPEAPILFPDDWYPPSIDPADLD

EBNA2 type 1 motif 2 peptide motif 2 (from UniProt P12978)
Kd [1]: 35 µM

type 1 EBNA2 polypeptide T1 EBNA2_(381-445) (domain or fragment)
Kd [2]: 0.95 µM | stoichiometry N [2]: 0.42

type 1 EBNA2 polypeptide T1 EBNA2_(381-455) (domain or fragment)
stoichiometry N [3]: 0.38
